T1: Solute carrier family 22 member 1 (Mus musculus, UniProt O08966)
T1 sequence (O08966 whole entry): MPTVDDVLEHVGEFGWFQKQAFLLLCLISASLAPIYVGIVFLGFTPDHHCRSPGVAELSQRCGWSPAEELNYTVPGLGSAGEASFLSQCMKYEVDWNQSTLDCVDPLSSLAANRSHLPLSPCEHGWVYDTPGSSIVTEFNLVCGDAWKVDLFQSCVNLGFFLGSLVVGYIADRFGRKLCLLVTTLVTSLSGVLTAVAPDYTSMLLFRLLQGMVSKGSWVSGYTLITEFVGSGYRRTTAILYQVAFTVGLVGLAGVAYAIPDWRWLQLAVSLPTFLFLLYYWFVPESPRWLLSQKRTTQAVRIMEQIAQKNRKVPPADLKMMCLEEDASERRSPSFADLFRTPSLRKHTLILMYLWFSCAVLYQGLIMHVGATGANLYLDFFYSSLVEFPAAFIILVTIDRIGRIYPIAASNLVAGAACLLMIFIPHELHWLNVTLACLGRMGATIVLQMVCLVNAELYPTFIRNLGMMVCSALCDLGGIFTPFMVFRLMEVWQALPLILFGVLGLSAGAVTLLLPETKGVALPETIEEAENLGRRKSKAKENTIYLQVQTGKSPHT


Columns and labels:
[1] = molecular target: T1, Solute carrier family 22 member 1; assay: TP_TRANSPORTER: decrease in liver concentration in Oct1 -/- mouse; assay type: functional, organism-based; conditions: in vivo
[2] = molecular target: T1, Solute carrier family 22 member 1; assay: TP_TRANSPORTER: decrease in small intestine concentration in Oct1 -/- mouse; assay type: functional, organism-based; conditions: in vivo
[3] = substrate: CCCCNC(=N)NC(=N)N; assay: cells, lysate or membranes named
[4] = substrate: [H]/N=C(/N)N/C(=N/[H])NCCc1ccccc1; assay: (§1) TP_TRANSPORTER: uptake in OCT1-expressing CHO cells; assay type: functional, cell-based
[5] = substrate: CN(C)C(=N)N=C(N)N; assay: as §1; assay type: functional, cell-based

Molecule | Activity [1] | Activity [2] | Km [3] | Km [4] | Km [5]
CN(C)C(=N)N=C(N)N [METFORMIN] | substrate [+] | substrate [+] |  |  | 
Solute carrier family 22 member 1 (Rattus norvegicus) (protein) MPTVDDVLEQVGEFGWFQKQAFLLLCLISASLAPIYVGIVFLGFTPGHYCQNPGVAELSQRCGWSQAEELNYTVPGLGPSDEASFLSQCMRYEVDWNQSTLDCVDPLSSLVANRSQLPLGPCEHGWVYDTPGSSIVTEFNLVCGDAWKVDLFQSCVNLGFFLGSLVVGYIADRFGRKLCLLVTTLVTSVSGVLTAVAPDYTSMLLFRLLQGMVSKGSWVSGYTLITEFVGSGYRRTTAILYQMAFTVGLVGLAGVAYAIPDWRWLQLAVSLPTFLFLLYYWFVPESPRWLLSQKRTTRAVRIMEQIAQKNGKVPPADLKMLCLEEDASEKRSPSFADLFRTPNLRKHTVILMYLWFSCAVLYQGLIMHVGATGANLYLDFFYSSLVEFPAAFIILVTIDRIGRIYPIAASNLVTGAACLLMIFIPHELHWLNVTLACLGRMGATIVLQMVCLVNAELYPTFIRNLGMMVCSALCDLGGIFTPFMVFRLMEVWQALPLILFGVLGLTAGAMTLLLPETKGVALPETIEEAENLGRRKSKAKENTIYLQVQTGKSSST |  |  | 48.8 µM | 15.6 µM | 377 µM
